Test [1] has as its target eIF4G (Saccharomyces cerevisiae) (UniProt P39935). The settings on record: cited from earlier work.
In test [2] the target is full-length Leishmania eIF4G3 (Leishmania major) (UniProt Q4QEK5). The experiment in a line: fluorescence polarisation; fluorescence anisotropy, PTI QuantaMaster; Alexa-647-labelled eIF4G3, eIF4E4(v)::PABP1(J) added. A general note: In fluorescence polarisation assays a small probe gives low polarisation when free and higher when bound to something large.
The target of test [3] is eIF4E4(iv), an approximately 5 kDa region of the extended N-terminal domain of Leishmania major eIF4E4 (Leishmania major). The experiment in a line: MST; labelled eIF4E4(iv) held constant, non-labelled PABP1 section varied (16 tubes); Nanotemper Monolith NT.115.
The target in test [4] is T1, PABP1(J), the PABC domain of Leishmania major PABP1 prepared as segment J (Leishmania major, UniProt E9AFX7 482-560).
T1 construct: 15N,13C-labelled form used in NMR; also called PABP1 PABC domain; PABC1; source: E. coli NiCo21(DE3), synthetic reading frame, purified (cobalt IDA resin, gel filtration); also co-expressed with eIF4E4(v) from a dual expression plasmid
T1 sequence: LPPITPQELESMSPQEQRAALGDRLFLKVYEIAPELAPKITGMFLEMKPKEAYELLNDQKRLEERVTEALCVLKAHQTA
Put plainly: MST; FITC-labelled synthetic 14mer peptides with PABP1(J). To be noted: both partners purified.

For a further test, the target named is eIF4E4(v):PABP1(J). The experiment in a line: Fluorescence anisotropy, Alexa-647-labelled eIF4G3 binding to the complex eIF4E4(v):PABP1(J). The settings on record: Alexa-647-labelled eIF4G3, eIF4E4(v)::PABP1(J) added, read-out: KD (average of calculated KD values). On the set-up: species or system Leishmania. As for the experimental part: (§1) Microscale thermophoresis experiments were performed using eIF4E4(iv) or eIF4G3 labelled with a fluorescent tag (Monolith Protein Labeling Kit Red-Maleimide), or the eIF4G3 peptide […] labeled with fluorescein-5-isothiocyanate. The concentration of the fluorescently labelled protein (eIF4E4(iv)) was held constant, while the concentration of non-labelled ligand protein was varied. The experiment was conducted by preparing 16 tubes with various ratios of the interacting labelled/non-labelled proteins. The solutions were introduced into capillaries, which were then loaded into a Nanotemper Monolith NT.115 instrument for measurement. For the SPR experiments, eIF4E4(iv) was immobilized via amine coupling to a Biacore CM5 sensor chip (GE Healthcare Life Sciences) and titrations against PABP1(J) were performed in a Biacore T200 instrument. In order to maximise confidence in the calculated dissociation constant values (based on kON and kOFF values), two types of model were fitted to the raw data: a homogeneous 1:1 binding model, and a heterogeneous 1:1 two-ligand model. […] Fluorescence anisotropy measurements were performed using a PTI QuantaMaster fluorimeter. […]
(§2) Figure 5. Quantitative characterization of interactions of Leishmania cap-complex proteins. […] Fluorescence anisotropy measurements (C) detected binding of Alexa-647-labelled eIF4G3 to the complex eIF4E4(v):PABP1(J). […]

Another test deals with PABP1. The experiment in a line: Microscale thermophoresis, Alexa-647-labelled eIF4G3 with PABP1. In kind it is binding, Leishmania. To be noted: Alexa-647-labelled eIF4G3 and PABP1. On the procedure:
as §1, §2
(Microscale thermophoresis detects binding through changes in fluorescence in a small temperature gradient.)

Test [5] has as its target T1, PABP1(J), the PABC domain of Leishmania …. Put plainly: MST; labelled eIF4E4(iv) held constant, non-labelled PABP1 section varied (16 tubes); Nanotemper Monolith NT.115. The settings on record: both partners purified.
Test [6] concerns the target Leishmania major eIF4E4 segment (iv) (Leishmania major). Put plainly: SPR; eIF4E4(iv) immobilised by amine coupling on a Biacore CM5 chip, PABP1(J) passed over, Biacore T200; homogeneous 1:1 binding model.
The target of another test is eIF4E4(iv). Put plainly: Microscale thermophoresis of mutated PABP1(J) F525A with eIF4E4(iv). In kind it is binding, Leishmania major. As for the experimental part: as §1, with “For the SPR experiments, eIF4E4(iv) was immobilized via amine coupling to a Biacore CM5 sensor chip (GE Healthcare Life Sciences) and titrations against PABP1(J) were performed in a Biacore T200 instrument.” left out
We wanted to establish a quantitative understanding of the relative significance of interactions between the Leishmania cap-binding complex factors eIF4E4, eIF4G3 and PABP1 using protein domains or full-length proteins, rather than peptides. […]

Ends that are not written are not given here.

eIF4G (Saccharomyces cerevisiae), sequence (P39935 whole entry): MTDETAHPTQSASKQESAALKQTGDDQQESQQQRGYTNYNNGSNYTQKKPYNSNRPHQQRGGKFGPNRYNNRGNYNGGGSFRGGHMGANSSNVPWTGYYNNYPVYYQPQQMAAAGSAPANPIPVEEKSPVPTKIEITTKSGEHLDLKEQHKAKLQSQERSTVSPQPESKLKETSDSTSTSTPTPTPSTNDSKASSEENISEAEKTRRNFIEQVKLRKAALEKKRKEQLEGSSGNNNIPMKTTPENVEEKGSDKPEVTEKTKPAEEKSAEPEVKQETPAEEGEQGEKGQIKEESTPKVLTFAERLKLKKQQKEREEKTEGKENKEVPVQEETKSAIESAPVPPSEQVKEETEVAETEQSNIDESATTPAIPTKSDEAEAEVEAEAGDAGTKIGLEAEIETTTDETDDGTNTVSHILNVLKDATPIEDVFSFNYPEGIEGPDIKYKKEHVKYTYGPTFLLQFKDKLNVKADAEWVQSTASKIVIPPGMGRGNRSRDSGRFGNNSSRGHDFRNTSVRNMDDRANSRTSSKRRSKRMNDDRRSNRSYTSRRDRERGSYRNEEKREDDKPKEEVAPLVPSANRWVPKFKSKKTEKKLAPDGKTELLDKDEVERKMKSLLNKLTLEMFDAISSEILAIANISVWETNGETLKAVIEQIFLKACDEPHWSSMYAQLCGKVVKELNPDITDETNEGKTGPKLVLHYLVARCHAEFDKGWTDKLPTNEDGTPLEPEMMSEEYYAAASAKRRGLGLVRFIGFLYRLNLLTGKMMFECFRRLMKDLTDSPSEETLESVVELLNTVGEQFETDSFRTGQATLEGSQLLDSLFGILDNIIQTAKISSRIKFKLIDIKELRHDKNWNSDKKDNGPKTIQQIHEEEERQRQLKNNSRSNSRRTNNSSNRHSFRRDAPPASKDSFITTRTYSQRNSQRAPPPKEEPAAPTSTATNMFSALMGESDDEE

The term Kd denotes the concentration at which binding is half-saturated. On to eIF4E (from UniProt P07260), for which the Kd in [1] was 0.0023 µM. “heterodimeric complex eIF4E4(v):PABP1(J) (from UniProt E9AFX7 482-560)” yielded a Kd in test [2] of 0.34 µM. “PABP1(J) F525A (from UniProt E9AFX7) (domain or fragment)” returned a Kd in [3] of 0.55 µM.

B1: eIF4E4 PAM2-motif FITC-labelled 14mer peptide, E146A (peptide)
peptide: HHMNPNATAFMPGR
modifications: also: FITC label
notes: source: synthetic peptide (Thermo Fisher Scientific, HPLC-purified to 98%)
As to B1, the Kd in test [4] is 0.163 ± 0.0164 µM.

B2: eIF4E4 PAM2-motif FITC-labelled 14mer peptide, WT (peptide)
peptide: HHMNPNATEFMPGR
modifications: also: FITC label
notes: also called 'wild-type' peptide; 14mer eIF4E4 peptide; source: synthetic peptide (Thermo Fisher Scientific, HPLC-purified to 98%)
As for B2, the Kd in test [4] worked out at 0.033 ± 0.0009 µM.

B3: eIF4E4 PAM2-motif FITC-labelled 14mer peptide, M148A (peptide)
peptide: HHMNPNATEFAPGR
modifications: also: FITC label
notes: as for B1
Take B3: binding in test [4] was characterised by a dissociation constant (Kd) of 0.0628 ± 0.0031 µM.

B4: eIF4G3: full-length Leishmania eIF4G3, Alexa-647-labelled (protein)
chain: MQFTVEQIRSVRNNYLEPPYPGFSLDEVVRRRRLTQTKLVRGENAWVAKGTAQTTEEWVQRLLHGTLNKLTEENKDIMIDKLLTKELFATEDIMNMVVNIIFKKALDEPENSKLYAGVCHSLALYEAKVLRDGHKGERPQSQLRDAIISTAQHEFRTLSKELSKMEDKSEEELEYERSNVMRRKRSNMRFIGELYLCTALTHSTMFTVMDLTMRCSDKTGFPSSENIELLAALLNTIGDRLDKNHKKTLDPYFTSLENFNKKSDCPYPPRIRFKIMDLLDLRKRGWGLKPKPVKAALPPSHGKDKKYATAPPPKKGGRDQGSAAAASKSWRDAATTKTGTAAAPAPSADKGLNGRGTSSAAPAANTAALSSSAASTAAATAPAGASFRDEASPQVPLVKFELRVASMFQEWVADRTNDVILHWVDQFNTCDRFFESESELCVAVAQEVIHSACTTTRKDAQREAFSFLVVGLYMIDTEVFDGFASALASAIEDGLLEDVPKFGERFMSMLRLTSTEQETRADVYFDAANVLRLTYNRLESPDDSAVDTLMSFWDRVPLPSTDEENMIRMDLDVVYSLCNPEGVQDGLEKLLSRIIHSMLQMQLMDAEVLDEFLCLDVEDGLCAKVIADYKERFPK
modifications: Alexa 647 label (Monolith Protein Labeling Kit Red-Maleimide) in the fluorescence anisotropy and MST experiments; left off: His12, end not stated, kept
notes: full-length Leishmania eIF4G3, Alexa-647-labelled
Take B4: the Kd on eIF4E4(v):PABP1(J) is 0.34 µM. Further, the “binding” value in the test with PABP1 was “no binding could be detected”.

B5: eIF4E4 PAM2-motif FITC-labelled 14mer peptide, M140A (peptide)
peptide: HHANPNATEFMPGR
modifications: also: FITC label
notes: as for B1
In test [4], B5 showed a Kd of 0.0343 ± 0.0013 µM.

B6: eIF4E4 PAM2-motif FITC-labelled 14mer peptide, F147A (peptide)
peptide: HHMNPNATEAMPGR
modifications: also: FITC label
notes: also called F147A mutant peptide; source: synthetic peptide (Thermo Fisher Scientific, HPLC-purified to 98%)
Consider B6, for which, in test [4], the affinity, expressed as Kd, was 0.127 ± 0.0134 µM.

B7: eIF4E4(iv), an approximately 5 kDa region of the extended N-terminal domain of Leishmania major eIF4E4 (domain or fragment)
chain: PTRFSPATVPRHHMNPNATEFMPGRRNGPDGGLEALPTSTAD
modifications: also: Alexa 647 label (Red-Maleimide) for MST
As to B7, the Kd in [5] was 0.022 µM.

B8: eIF4E4 PAM2-motif FITC-labelled 14mer peptide, N143A (peptide)
peptide: HHMNPAATEFMPGR
modifications: also: FITC label
notes: as for B1
As to B8, the Kd in test [4] was determined as 0.0692 ± 0.0049 µM.

B9: Leishmania major PABP1 segment J (PABC domain) (domain or fragment)
chain: LPPITPQELESMSPQEQRAALGDRLFLKVYEIAPELAPKITGMFLEMKPKEAYELLNDQKRLEERVTEALCVLKAHQTA
modifications: here or on the partner: 13C,15N-labelled in the NMR experiment
Consider B9, for which the equilibrium dissociation constant (Kd) in [6] was found to be 0.16 µM.

B10: PABP1(J) F525A: PABC domain of Leishmania PABP1 (segment J) with phenylalanine 525 mutated to alanine (protein)
chain: LPPITPQELESMSPQEQRAALGDRLFLKVYEIAPELAPKITGMALEMKPKEAYELLNDQKRLEERVTEALCVLKAHQTA
Turning to B10, the Kd at eIF4E4(iv) (eIF4E4(iv) + PABP1(J) F525A, average of three independent titrations) was 0.55 µM. Further, on eIF4E4(iv) (ratio of KD values), the “KD relative to the non-mutated PABP1(J) value” is 25 times.

The record behind these values is paper PMC6379680, “The Leishmania PABP1–eIF4E4 interface: a novel 5′–3′ interaction architecture for trans-spliced mRNAs” (Nucleic Acids Research, 2018).
